Results on 14 molecules are retold here after US11129879B2, “Methods for the treatment of neurological disorders and diseases using FNDC5” (Dana-Farber Cancer Institute, Inc., priority 2013, dated 2021).

Experiment [1] concerns primary cortical neurons. As to the kind of experiment: gene expression by qPCR in cultured primary cortical neurons. It counts as cell-based, mouse. To be noted: for Fndc5 gene expression: 1 μM; for Fndc5 gene expression / Fndc5 mRNA expression: DIV 7, vs vehicle; for Fndc5 mRNA expression: 100 ng/ml. As for the experimental part:
(§1) Primary cortical and hippocampal neurons were isolated as described in great detail previously in Bartlett and Banker (1984) J. Neurosci. 4, 1944-1953. Briefly, cortices and hippocampi were dissected from E16-E18 embryos, dissociated with trypsin (Sigma) and DNAse (Roche), and plated on poly-L-lysine-coated (Sigma) plates. Dissociated neurons were cultured in Neurobasal Media supplemented with B27, GlutaMAX™ (Life Technologies), and Penicillin-Streptomycin (Cellgro).
Cells or tissues were lysed and homogenized in TRIzol (Invitrogen). Total RNA was subsequently isolated using the RNeasy Mini or Micro Kit (Qiagen). First-strand cDNA was generated using the High Capacity cDNA Reverse Transcription Kit (Life Technologies), and qPCR was performed using SYBR Green Master Mix in a 7900HT Real-Time PCR system (Applied Biosystems). mRNA quantities were normalized to Rsp18 after determination by the comparative Ct method (Schmittgen and Livak (2008) Nat. Protocols 3, 1101-1108).
Primary cortical neurons were transduced at the indicated time-points and were harvested 48 hrs later for RNA isolation. For knockdown studies, primary cortical neurons were transduced with viral supernatants from HEK293T cells transfected with pLKO.1 vector (TRC) containing the specified shRNAs at the indicated time-points.
(In general: Quantitative PCR measures a nucleic acid by following its amplification.)

In experiment [2] the test system is substantia nigra. The settings on record: 4 mg/kg/d, harvested 2 days later, microarray, vs untreated mice; cited from earlier work.
Experiment [3] concerns SH-SSY5Y neurons. Kind of experiment: Fndc5 gene expression by qPCR in SH-SSY5Y neurons. It counts as cell-based, human. To be noted: treatment with the neurotoxin. As for the experimental part: The cells were differentiated with retinoic acid. Gene expression was assessed with qPCR.
In experiment [4] the test system is primary cortical neurons. As to the kind of experiment: CellTiter-Glo Luminescent Cell Viability Assay of cultured neurons. It counts as cell-based, mouse. To be noted: treatment during in vitro culture for 7 days, relative to hFc. As for the experimental part: Cell viability of cultured neurons was assessed using CellTiter-Glo® Luminescent Cell Viability Assay (Promega, Madison, Wis.) according to the manufacturer's instructions. Luminescence of cell lysates was measured using the FLUOstar Omega plate reader (BMG LABTECH, Offenburg, Germany).

In experiment [5] the test system is primary cortical neurons. As to the kind of experiment: binding of irisinFc to PFA-fixed cultured neurons, detected by secondary anti-human Fc fluorescent antibody. Also on record: species or system mouse. The settings on record: PFA-fixed cultures, vs humanFc. As for the experimental part:
PFA-fixed cultured primary cortical neurons were incubated with either irisin-Fc or humanFc as control and binding of irisinFc was detected by a secondary anti-human Fc fluorescent antibody. IrisinFc clearly binds to neurons in culture, especially given that the observed pattern of the binding and the fact that the cultures are highly enriched in neurons (>90%).

Experiment [6] relates to Wild type C56/B16 mice. As to the kind of experiment: peripheral injections of irisin-Fc, Bdnf gene expression by qPCR. It counts as in vivo, mouse. To be noted: 5 mg/kg i.p., RNA 10d later, vs humanFc. As for the experimental part:
Wild type C56/B16 mice were injected with either irisinFc or humanFc (5 mg/kg) i.p. Total RNA for qPCR was harvested 10d later. Results are shown as mean+SEM, n=6, *P<0.05.

For experiment [7], the system named is human embryonic stem cells differentiated into motor neurons (eMN). As to the kind of experiment: human embryonic stem cells differentiated into motor neurons (eMN), gene expression by qPCR. It counts as cell-based. As for the experimental part:
Gene expression was assessed with qPCR.
Growth of human embryonic stem cells, differentiation of human embryonic stem cells into motor neurons, and glial co-culture were performed as described in DiGiorgio et al. (2008) Cell Stem Cell 3:637-648.

Experiment [8] relates to primary hippocampal neurons. As to the kind of experiment: gene expression by qPCR in cultured primary hippocampal neurons. It counts as cell-based, mouse. As for the experimental part: At the indicated days in vitro (DIV) mRNA was prepared and gene expression was assessed by qPCR. Data are shown as mRNA levels relative to Rsp18 expression, expressed as mean±SEM. *P<0.05 compared to DIV 1 control group. […] Forty-eight hours later mRNA was prepared and gene expression was assessed by qPCR. Data are shown as mRNA levels relative to Rsp18 expression, expressed as mean±SEM. *P<0.05 compared to corresponding GFP expressing control group. […] Four days later mRNA was prepared and gene expression was assessed by qPCR. Data are shown as mRNA levels relative to Rsp18 expression, expressed as mean±SEM. *P<0.05 compared to corresponding shLuc expressing control group. […] Data are shown as mRNA levels relative to Rsp18 expression, expressed as mean±SEM. *P<0.05 compared to vehicle only group. […] Four days later mRNA was prepared and gene expression was assessed by qPCR. Data are shown as mRNA levels relative to Rsp18 expression, expressed as mean±SEM. *P<0.05 compared to corresponding shLuc expressing control group. […] Data are shown as mRNA levels relative to Rsp18 expression, expressed as mean±SEM. *P<0.05 compared to vehicle only group.
as §1
Cells or tissues were lysed and homogenized in TRIzol (Invitrogen). […] First-strand cDNA was generated using the High Capacity cDNA Reverse Transcription Kit (Life Technologies), and qPCR was performed using SYBR Green Master Mix in a 7900HT Real-Time PCR system (Applied Biosystems). mRNA quantities were normalized to Rsp18 after determination by the comparative Ct method (Schmittgen and Livak (2008) Nat. Protocols 3, 1101-1108).

The subject of experiment [9] is primary cortical neurons. As to the kind of experiment: irisin stimulation of silenced primary cortical neurons, mRNA levels of genes of interest. It counts as cell-based, mouse. The settings on record: 1 ug/mL (Enzo) at DIV7 after silencing with 1 uM TTX and 100 uM APV; time course, p<0.05 from baseline. As for the experimental part: Primary cortical neurons were silenced at DIV6 with 1 uM TTX and 100 uM APV overnight. The neurons were then stimulated at DIV7 using irisin (1 ug/mL; Enzo; Product No. ADI-908-307-0010). […] In a separate analysis, primary cortical neurons were silenced at DIV6 with 1 uM TTX and 10 uM MK801 overnight. […] In still a separate analysis, primary cortical neurons were silenced at DIV6 with 1 uM TTX and 100 uM APS overnight. The neurons were then stimulated at […] using irisin (1 ug/mL; Enzo; Product No. ADI-908-307-0010). […] In yet another separate analysis, primary cortical neurons were silenced at DIV7 with 1 uM TTX and 100 uM APS overnight. The neurons were then stimulated at DIV8 using 1 ug/mL of irisin from one of two vendors (i.e., either from Enzo, Product No. ADI-908-307-0010, or from Phoenix, Product No. 067-29A).

The mark [10] stands for this setting: 5× concentrated conditioned media from CHO cell lines, RNA next day, vs hFc.
Where [11] appears, read: 1 ug/ml at DIV 5 and 6, vs vehicle.

For the molecule `CCN(CC)c1ccc(/C=N/NC(=O)c2ccc(O)cc2)cc1` [DY131, reference compound], in experiment [1] (overnight), the Fndc5 gene expression result is “had no effect on Fndc5 gene expression”.
On the same count and under the same terms, as for `Cc1cc(SCc2sc(-c3ccc(C(F)(F)F)c(F)c3)nc2C)ccc1OCC(=O)O` [GW0742, reference compound], the entry is “no effect on Fndc5 gene expression”; as for `CC(C)(Sc1ccc(CCN(CCCCC2CCCCC2)C(=O)NC2CCCCC2)cc1)C(=O)O` [GW7647, reference compound], “no effect on Fndc5 gene expression”.
On to `COC(=O)[C@@]1(O)C[C@H]2O[C@]1(C)n1c3ccccc3c3c4c(c5c6ccccc6n2c5c31)C(=O)NC4` [K252a, reference compound], for which the “reduction of Fndc5 mRNA expression by BDNF” value in experiment [1] (pre-incubation with 50 nM, then BDNF 100 ng/ml overnight) was “This effect was abolished”.
As to `CN1CC=C(c2ccccc2)CC1` [MPTP, 1-methyl-4-phenyl-1,2,3,6-tetrahydropyridine], in experiment [2], the “Fndc5 expression in substantia nigra” value is “significantly lower Fndc5 expression”.
With `COc1cc(/C=C(\C#N)C(=O)Nc2nnc(C(F)(F)F)s2)ccc1OCc1ccc(C(F)(F)F)cc1C(F)(F)F` [XCT 790, reference compound], in experiment [1] (overnight), the Fndc5 gene expression result is given as “significantly reduced Fndc5 gene expression”.
Regarding `C=C(C)[C@H]1Cc2c(ccc3c2O[C@@H]2COc4cc(OC)c(OC)cc4[C@@H]2C3=O)O1` [rotenone], the Fndc5 gene expression entry in experiment [3] is listed as “reduces Fndc5 gene expression”.
“IGF-1: recombinant mouse insulin-like growth factor 1, R&D Systems”: in experiment [1] (overnight), the “Fndc5 mRNA expression” value is “only BDNF stimulation significantly reduced”.

B1: irisinFc: Fc fusion of irisin (murine Fndc5 residues 29-140); amino acid sequence given in b228 (protein)
chain: DSPSAPVNVTVRHLKANSAVVSWDVLEDEVVIGFAISQQKKDVRMLRFIQEVNTTTRSCALWDLEEDTEYIVHVQAISIQGQSPASEPVLFKTPREAEKMASKNKDEVTMKEGGGGAGGGGVECPPCPAPPVAGPSVFLFPPKPKDTLMISRTPEVTCVVVDVSHEDPEVQFNWYVDGVEVHNAKTKPREEQFNSTFRVVSVLTVVHQDWLNGKEYKCKVSNKGLPAPIEKTISKTKGQPREPQVYTLPPSREEMTKNQVSLTCLVKGFYPSDIAVEWESNGQPENNYKTTPPMLDSDGSFFLYSKLTVDKSRWQQGNVFSCSVMHEALHNHYTQKSLSLSPGK
modifications: /note=“Description of Artificial Sequence IrisinFc polypeptide”
On to B1, for which, in experiment [1] (setting [10]), the Bdnf expression entry is “increased expression of Fndc5 and Bdnf”; the Fndc5 expression entry was “increased expression of Fndc5 and Bdnf”. Also, the cell viability result in experiment [4] was “significantly increased cell viability”. In addition, the binding to neurons entry in [5] is “neurons bind irisinFc”. For the same molecule, in experiment [6], the “Bdnf expression in the cerebellum” value is recorded as “significant increase in Bdnf expression” and the “Bdnf expression in the sciatic nerve” value was “significant increase in Bdnf expression”. Besides, in [7], the eMN synapse formation result is “increases eMN synapse formation” and the “motor neuron differentiation of eMN” value was “promotes motor neuron differentiation”.

B2: recombinant irisin: commercially available recombinant irisin, secreted form of FNDC5 (Phoenix Pharmaceuticals; Enzo in b292) (protein, UniProt Q8NAU1 1-191, looked up)
Irisin: MQAARGGAGRPERPGRPGRGPERERERPPGAGAASPCAAPGLPAGGATIHPGSPSAWPPRARAALRLWLGCVCFALVQADSPSAPVNVTVRHLKANSAVVSWDVLEDEVVIGFAISQQKKDVRMLRFIQEVNTTTRSCALWDLEEDTEYIVHVQAISIQGQSPASEPVLFKTPREAEKMASKNKDEVTMKE
modifications: Irisin
With B2, in experiment [8] (setting [11]), the Bdnf gene expression result is given as “did not reach statistical significance”; the “gene program (Arc, cFos, Npas4, and Zif268)” value was “induced a similar gene program”. For the same molecule, the “changes in mRNA levels of genes of interest” value in [9] was “many of the analyzed genes have statistically significant changes”.

B3: CNTF: recombinant human ciliary neurotrophic factor, Sigma (protein, UniProt P26441 1-200, looked up)
Ciliary neurotrophic factor: MAFTEHSPLTPHRRDLCSRSIWLARKIRSDLTALTESYVKHQGLNKNINLDSADGMPVASTDQWSELTEAERLQENLQAYRTFHVLLARLLEDQQVHFTPTEGDFHQAIHTLLLQVAAFAYQIEELMILLEYKIPRNEADGMPINVGDGGLFEKKLWGLKVLQELSQWTVRSIHDLRFISSHQTGIPARGSHYIANNKKM
B3: the “Fndc5 mRNA expression” value in experiment [1] (overnight) is on record as “only BDNF stimulation significantly reduced”.

B4: GDNF: recombinant human glial cell-derived neurotrophic factor, Sigma (protein, UniProt P39905 78-211, looked up)
Glial cell line-derived …: SPDKQMAVLPRRERNRQAAAANPENSRGKGRRGQRGKNRGCVLTAIHLNVTDLGLGYETKEELIFRYCSGSCDAAETTYDKILKNLSRNRRLVSDKVGQACCRPIAFDDDLSFLDDNLVYHILRKHSAKRCGCI
On to B4, for which the “Fndc5 mRNA expression” value in experiment [1] (overnight) is reported as “only BDNF stimulation significantly reduced”.

B5: NGF: recombinant mouse nerve growth factor, EMD Millipore (protein, UniProt P01139 122-241, looked up)
Beta-nerve growth factor: SSTHPVFHMGEFSVCDSVSVWVGDKTTATDIKGKEVTVLAEVNINNSVFRQYFFETKCRASNPVESGCRGIDSKHWNSYCTTTHTFVKALTTDEKQAAWRFIRIDTACVCVLSRKATRRG
For the molecule B5, in experiment [1] (overnight), the “Fndc5 mRNA expression” value is “only BDNF stimulation significantly reduced”.

B6: BDNF: recombinant human brain-derived neurotrophic factor, PeproTech (protein)
chain: HSDPARRGELSVCDSISEWVTAADKKTAVDMSGGTVTVLEKVPVSKGQLKQYFYETKCNPMGYTKEGCRGIDKRHWNSQCRTTQSYVRALTMDSKKRIGWRFIRIDTSCVCTLTIKRGR
Take B6: the “Fndc5 mRNA expression” value in experiment [1] (overnight) is “only BDNF stimulation significantly reduced Fndc5 mRNA expression”. In addition, the “lowest concentration that significantly reduced Fndc5 gene expression” value in experiment [1] (overnight, 0.1-100 ng/ml tested, dose-response observed) stood at 1 ng/mL. Further, the Fndc5 gene expression result in experiment [8] (100 ng/ml, overnight, DIV 7, vs vehicle) was “reduced Fndc5 gene expression”.
